Test results from US20150086555A1 (THERACLONE SCIENCES, published 2015).

Experiments:
[1] = molecular target: recombinant soluble homotrimeric HA of A/common magpie/Hong Kong/5052/07 (H5N1) (Influenza A virus A/common magpie/Hong …); assay: trimeric HA microarray, transfection supernatant set 3
[2] = molecular target: recombinant soluble homotrimeric HA, A/common magpie/Hong Kong/5052/07 H5N1 (Influenza A virus A/common magpie/Hong …); assay: microarray, transfection SN IgG, trimeric HA
[3] = molecular target: recombinant homotrimeric HA A/common magpie/Hong Kong/5052/07 H5N1 (Influenza A virus A/common magpie/Hong …); assay: protein microarray, purified IgG, trimeric HA
[4] = molecular target: recombinant soluble homotrimeric HA of A/common magpie/Hong Kong/5052/07 (H5N1) (Influenza A virus A/common magpie/Hong …); assay: HA microarray, BCC supernatant

| Binder | Trimeric HA Binding: RLU [2] | Trimeric HA Binding: RLU [3] | other results |
| --- | --- | --- | --- |
| TCN-533 (5256_A17a) (antibody, V domains shown) VH: QVQLVQSGADVKKPGSSVTVSCKASGGSFSNYGINWVRQAPGQGLEWMGGIIPLINAPNYAPKFQGRVTITADMFSNIVSLQLTSLRTDDTAVYYCARRKMTTAIDYWGQGTLVTVSS VL: QPVLTQPPSASASLGASVTLTCTLSSAYSNYKVDWYQQRPGKGPRFVMRVGTGGIVGSKGDGIPDRFSVLGSGLNRYLTIKNIQEEDESDYHCGADHGSGSNFVSPYVFGGGTKLTVL [TCN-533 (5256_A17a), listing 1 of 3 here] | – | – | Trimeric HA Binding: RLU [1]: 25200 RLU |
| TCN-556 (5089_K12) (antibody, V domains shown) VH: QVQLVQSGAEVKKPGASVKVSCKASGYTFIGYDMHWVRQAPGQGLEWMGWINAKRGGTNYAQKFQGRVTMTRDTSISTAYMELNSLRSDDTAVYYCARGVGSRTTIFGVLNPEFDYWGQGTLVTVSS VL: QSALTQPPSASGSPGQSVTISCTGSSSDVGGYDYVSWYQQHPGKAPKLLIYEVTKRPSGVPDRFSGSKSGNTASLTVSGLQAEDEADYYCSSYAGNYNHVFGPGTKVTVL [TCN-556 (5089_K12), listing 1 of 2 here] | 20100 RLU | – | – |
| TCN-560 (5084_P10) (antibody, V domains shown) VH: EVQLVESGGGLVQPGGSLRLSCAASGFIFRNYWMSWVRQAPGKGLEWVANIKQDGREKYYVDSLRGRVNISRDNAENSLYLHMNSLRVEDTAVYFCARARMVVVTGDGFDVWGHGTMVTVSS VL: DIQMTQSPSSLSASVGDRVTITCRASQNIKRYFNWYQQKPGKAPKLLIYAASNLENGVPSRFSGSGSGTDFTLTISSLQPEDFATYYCQQSFSKSWTFGQGTNVDIK | 30500 RLU | – | – |
| TCN-533 (5256_A17a) (antibody, V domains shown) VH: QVQLVQSGADVKKPGSSVTVSCKASGGSFSNYGINWVRQAPGQGLEWMGGIIPLINAPNYAPKFQGRVTITADMFSNIVSLQLTSLRTDDTAVYYCARRKMTTAIDYWGQGTLVTVSS VL: QPVLTQPPSASASLGASVTLTCTLSSAYSNYKVDWYQQRPGKGPRFVMRVGTGGIVGSKGDGIPDRFSVLGSGLNRYLTIKNIQEEDESDYHCGADHGSGSNFVSPYVFGGGTKLTVL [TCN-533 (5256_A17a), listing 2 of 3 here] | – | 19000 RLU | – |
| TCN-556 (5089_K12) (antibody, V domains shown) VH: QVQLVQSGAEVKKPGASVKVSCKASGYTFIGYDMHWVRQAPGQGLEWMGWINAKRGGTNYAQKFQGRVTMTRDTSISTAYMELNSLRSDDTAVYYCARGVGSRTTIFGVLNPEFDYWGQGTLVTVSS VL: QSALTQPPSASGSPGQSVTISCTGSSSDVGGYDYVSWYQQHPGKAPKLLIYEVTKRPSGVPDRFSGSKSGNTASLTVSGLQAEDEADYYCSSYAGNYNHVFGPGTKVTVL [TCN-556 (5089_K12), listing 2 of 2 here] | – | 25600 RLU | – |
| TCN-533 (5256_A17a) (antibody, V domains shown) VH: QVQLVQSGADVKKPGSSVTVSCKASGGSFSNYGINWVRQAPGQGLEWMGGIIPLINAPNYAPKFQGRVTITADMFSNIVSLQLTSLRTDDTAVYYCARRKMTTAIDYWGQGTLVTVSS VL: QPVLTQPPSASASLGASVTLTCTLSSAYSNYKVDWYQQRPGKGPRFVMRVGTGGIVGSKGDGIPDRFSVLGSGLNRYLTIKNIQEEDESDYHCGADHGSGSNFVSPYVFGGGTKLTVL [TCN-533 (5256_A17a), listing 3 of 3 here] | – | – | Trimeric HA Binding: RLU [4]: 44500 RLU |
